Substrate in data set [1]: C[C@H](O)C(=O)O
Description: purified protein, by the assay type. The following applies: other: 37° C., pH 8, NAD, optionally 5 mM fructose-1,6-bisphosphate.

Substrate in data set [2]: C[C@H](O)C(=O)O
Description: purified protein, by the assay type. In kind it is biochemical, Escherichia coli MG1655. The following applies: other: 37° C., pH 7, DCIP reduction. The procedure: (§1) Ligation products were transformed into E. coli DH5α cells.
(§2) Activity of the membrane-associated DHB dehydrogenase (Ec-LldD) was assayed by following the DHB-dependent reduction of 2,6-dichloroindophenol (DCIP). (L)-2,4-dihydroxybutyrate+DCIPox→2-oxo-4-hydroxybutyrate+DCIPred Reaction scheme 2:
(§3) Reactions were started by adding 20 mM (L)-2,4-dihydroxybutyrate (Rhodia).

Substrate in data set [3]: O=C(O)[C@@H](O)CCO
Description: purified protein, by the assay type. Format: biochemical, Escherichia coli MG1655. The following applies: other: 37° C., pH 7, 0.06 mM DCIP. The procedure: as §1, §2, §3

Substrate in data set [4]: O=C(O)C[C@H](O)C(=O)O
Description: purified protein, by the assay type. The following applies: other: 37° C., pH 8, NAD. Format: biochemical, Bacillus subtilis strain 168.
Description: as §1

Substrate in data set [5]: O=C(O)C[C@H](O)C(=O)O
The data set is described as follows: purified protein, by the assay type. The settings on record: other: 37° C., pH 8, NAD.

Substrate in data set [6]: O=C(O)C[C@H](O)C(=O)O
Description: cells, lysate or membranes named. The settings on record: other: 37° C., pH 8, NAD.

Substrate in data set [7]: O=C(O)[C@@H](O)CCO
The data set is described as follows: cells, lysate or membranes named. In kind it is biochemical, Escherichia coli. The settings on record: other: 37° C., pH 8, 10 mM NAD.

B1: Lactococcus lactis (L)-lactate dehydrogenase Ll-LdhA, wild type, SEQ ID No. 120 (Lactococcus lactis subsp. lactis Il1403) (protein)
chain: MADKQRKKVILVGDGAVGSSYAFALVNQGIAQELGIVDLFKEKTQGDAEDLSHALAFTSPKKIYSADYSDASDADLVVLTSGAPQKPGETRLDLVEKNLRITKDVVTKIVASGFKGIFLVAANPVDILTYATWKFSGFPKNRVVGSGTSLDTARFRQALAEKVDVDARSIHAYIMGEHGDSEFAVWSHANVAGVKLEQWFQENDYLNEAEIVELFESVRDAAYSIIAKKGATFYGVAVALARITKAILDDEHAVLPVSVFQDGQYGVSDCYLGQPAVVGAEGVVNPIHIPLNDAEMQKMEASGAQLKAIIDEAFAKEEFASAVKN
Turning to B1, in data set [1], the Michaelis-Menten constant (Km) stood at 21.2 mM.

B2: Escherichia coli membrane associated (L)-lactate dehydrogenase Ec-LldD, wild type, SEQ ID No. 122 (Escherichia coli K-12) (protein)
chain: MIISAASDYRAAAQRILPPFLFHYMDGGAYSEYTLRRNVEDLSEVALRQRILKNMSDLSLETTLFNEKLSMPVALAPVGLCGMYARRGEVQAAKAADAHGIPFTLSTVSVCPIEEVAPAIKRPMWFQLYVLRDRGFMRNALERAKAAGCSTLVFTVDMPTPGARYRDAHSGMSGPNAAMRRYLQAVTHPQWAWDVGLNGRPHDLGNISAYLGKPTGLEDYIGWLGNNFDPSISWKDLEWIRDFWDGPMVIKGILDPEDARDAVRFGADGIVVSNHGGRQLDGVLSSARALPAIADAVKGDIAILADSGIRNGLDVVRMIALGADTVLLGRAFLYALATAGQAGVANLLNLIEKEMKVAMTLTGAKSISEITQDSLVQGLGKELPAALAPMAKGNAA
notes: hexa-His (N); made in house; host or cells: E. coli BL21 (DE3) star
Regarding B2, the Michaelis constant (Km) in data set [2] stood at 0.13 mM; in data set [3], 1.31 mM.

B3: Bacillus subtilis (L)-malate dehydrogenase Bs-Mdh, wild type, SEQ ID No. 126 (Bacillus subtilis subsp. subtilis str. 168) (protein)
chain: MGNTRKKVSVIGAGFTGATTAFLIAQKELADVVLVDIPQLENPTKGKALDMLEASPVQGFDAKITGTSNYEDTAGSDIVVITAGIARKPGMSRDDLVSTNEKIMRSVTQEIVKYSPDSIIVVLTNPVDAMTYAVYKESGFPKERVIGQSGVLDTARFRTFVAEELNLSVKDVTGFVLGGHGDDMVPLVRYSYAGGIPLETLIPKERIDAIVERTRKGGGEIVNLLGNGSAYYAPAASLTEMVEAILKDQRRVLPTIAYLEGEYGYEGIYLGVPTIVGGNGLEQIIELELTDYERAQLNKSVESVKNVMKVLS
notes: as for B2
As to B3, the Michaelis constant (Km) in data set [4] turned out to be 2.6 mM.

B4: Escherichia coli (L)-malate dehydrogenase Ec-Mdh, wild type, SEQ ID No. 124 (Escherichia coli K-12) (protein)
chain: MKVAVLGAAGGIGQALALLLKTQLPSGSELSLYDIAPVTPGVAVDLSHIPTAVKIKGFSGEDATPALEGADVVLISAGVARKPGMDRSDLFNVNAGIVKNLVQQVAKTCPKACIGIITNPVNTTVAIAAEVLKKAGVYDKNKLFGVTTLDIIRSNTFVAELKGKQPGEVEVPVIGGHSGVTILPLLSQVPGVSFTEQEVADLTKRIQNAGTEVVEAKAGGGSATLSMGQAAARFGLSLVRALQGEQGVVECAYVEGDGQYARFFSQPLLLGKNGVEERKSIGTLSAFEQNALEGMLDTLKKDIALGEEFVNK
B4: in data set [5], the Km is reported as 0.56 mM.

B5: Escherichia coli malate dehydrogenase Ec-Mdh variant R81A D86S, SEQ ID No. 170 (Escherichia coli K-12; D86S/R81A) (protein)
chain: MKVAVLGAAGGIGQALALLLKTQLPSGSELSLYDIAPVTPGVAVDLSHIPTAVKIKGFSGEDATPALEGADVVLISAGVAAKPGMSRSDLFNVNAGIVKNLVQQVAKTCPKACIGIITNPVNTTVAIAAEVLKKAGVYDKNKLFGVTTLDIIRSNTFVAELKGKQPGEVEVPVIGGHSGVTILPLLSQVPGVSFTEQEVADLTKRIQNAGTEVVEAKAGGGSATLSMGQAAARFGLSLVRALQGEQGVVECAYVEGDGQYARFFSQPLLLGKNGVEERKSIGTLSAFEQNALEGMLDTLKKDIALGEEFVNK
As for B5, the results for the Michaelis-Menten constant (Km) in data set [6] and in data set [7] were 10.3 mM and 28 mM, respectively.

B6: Escherichia coli malate dehydrogenase Ec-Mdh variant R81A M85E I12V, SEQ ID No. 166 (Escherichia coli K-12; I12V/M85E/R81A) (protein)
chain: MKVAVLGAAGGVGQALALLLKTQLPSGSELSLYDIAPVTPGVAVDLSHIPTAVKIKGFSGEDATPALEGADVVLISAGVAAKPGEDRSDLFNVNAGIVKNLVQQVAKTCPKACIGIITNPVNTTVAIAAEVLKKAGVYDKNKLFGVTTLDIIRSNTFVAELKGKQPGEVEVPVIGGHSGVTILPLLSQVPGVSFTEQEVADLTKRIQNAGTEVVEAKAGGGSATLSMGQAAARFGLSLVRALQGEQGVVECAYVEGDGQYARFFSQPLLLGKNGVEERKSIGTLSAFEQNALEGMLDTLKKDIALGEEFVNK
Regarding B6, the Km in data set [6] turned out to be 11.2 mM; in data set [7] it was 20 mM.

B7: Escherichia coli malate dehydrogenase Ec-Mdh variant R81A, SEQ ID No. 156 (Escherichia coli K-12; R81A) (protein)
chain: MKVAVLGAAGGIGQALALLLKTQLPSGSELSLYDIAPVTPGVAVDLSHIPTAVKIKGFSGEDATPALEGADVVLISAGVAAKPGMDRSDLFNVNAGIVKNLVQQVAKTCPKACIGIITNPVNTTVAIAAEVLKKAGVYDKNKLFGVTTLDIIRSNTFVAELKGKQPGEVEVPVIGGHSGVTILPLLSQVPGVSFTEQEVADLTKRIQNAGTEVVEAKAGGGSATLSMGQAAARFGLSLVRALQGEQGVVECAYVEGDGQYARFFSQPLLLGKNGVEERKSIGTLSAFEQNALEGMLDTLKKDIALGEEFVNK
In the case of B7, the Km in data set [6] was found to be 0.7 mM; in data set [7] it was 33 mM.

B8: Escherichia coli malate dehydrogenase Ec-Mdh variant R81A M85Q, SEQ ID No. 158 (Escherichia coli K-12; M85Q/R81A) (protein)
chain: MKVAVLGAAGGIGQALALLLKTQLPSGSELSLYDIAPVTPGVAVDLSHIPTAVKIKGFSGEDATPALEGADVVLISAGVAAKPGQDRSDLFNVNAGIVKNLVQQVAKTCPKACIGIITNPVNTTVAIAAEVLKKAGVYDKNKLFGVTTLDIIRSNTFVAELKGKQPGEVEVPVIGGHSGVTILPLLSQVPGVSFTEQEVADLTKRIQNAGTEVVEAKAGGGSATLSMGQAAARFGLSLVRALQGEQGVVECAYVEGDGQYARFFSQPLLLGKNGVEERKSIGTLSAFEQNALEGMLDTLKKDIALGEEFVNK
As for B8, the Km in data set [6] was found to be 2.2 mM; in data set [7], 29 mM.

B9: Escherichia coli malate dehydrogenase Ec-Mdh variant R81A M85Q I12V, SEQ ID No. 164 (Escherichia coli K-12; I12V/M85Q/R81A) (protein)
chain: MKVAVLGAAGGVGQALALLLKTQLPSGSELSLYDIAPVTPGVAVDLSHIPTAVKIKGFSGEDATPALEGADVVLISAGVAAKPGQDRSDLFNVNAGIVKNLVQQVAKTCPKACIGIITNPVNTTVAIAAEVLKKAGVYDKNKLFGVTTLDIIRSNTFVAELKGKQPGEVEVPVIGGHSGVTILPLLSQVPGVSFTEQEVADLTKRIQNAGTEVVEAKAGGGSATLSMGQAAARFGLSLVRALQGEQGVVECAYVEGDGQYARFFSQPLLLGKNGVEERKSIGTLSAFEQNALEGMLDTLKKDIALGEEFVNK
For B9, the results for the Michaelis-Menten constant (Km) in data set [6] and in data set [7] were 12.5 mM and 19 mM, respectively.

B10: Escherichia coli malate dehydrogenase Ec-Mdh variant R81A I12V, SEQ ID No. 162 (Escherichia coli K-12; I12V/R81A) (protein)
chain: MKVAVLGAAGGVGQALALLLKTQLPSGSELSLYDIAPVTPGVAVDLSHIPTAVKIKGFSGEDATPALEGADVVLISAGVAAKPGMDRSDLFNVNAGIVKNLVQQVAKTCPKACIGIITNPVNTTVAIAAEVLKKAGVYDKNKLFGVTTLDIIRSNTFVAELKGKQPGEVEVPVIGGHSGVTILPLLSQVPGVSFTEQEVADLTKRIQNAGTEVVEAKAGGGSATLSMGQAAARFGLSLVRALQGEQGVVECAYVEGDGQYARFFSQPLLLGKNGVEERKSIGTLSAFEQNALEGMLDTLKKDIALGEEFVNK
On to B10, for which, in data set [6], the Km was 8.5 mM.

B11: Escherichia coli malate dehydrogenase Ec-Mdh variant R81A M85E, SEQ ID No. 160 (Escherichia coli K-12; M85E/R81A) (protein)
chain: MKVAVLGAAGGIGQALALLLKTQLPSGSELSLYDIAPVTPGVAVDLSHIPTAVKIKGFSGEDATPALEGADVVLISAGVAAKPGEDRSDLFNVNAGIVKNLVQQVAKTCPKACIGIITNPVNTTVAIAAEVLKKAGVYDKNKLFGVTTLDIIRSNTFVAELKGKQPGEVEVPVIGGHSGVTILPLLSQVPGVSFTEQEVADLTKRIQNAGTEVVEAKAGGGSATLSMGQAAARFGLSLVRALQGEQGVVECAYVEGDGQYARFFSQPLLLGKNGVEERKSIGTLSAFEQNALEGMLDTLKKDIALGEEFVNK
On to B11, for which the Km in data set [6] came to 8.6 mM; in data set [7], 48 mM.

The Km is the concentration of substrate that gives half-maximal velocity.

Source of the values: patent publication US9605283B2, “Microorganism modified for the production of 1,3-propanediol” (INSTITUT NATIONAL DES SCIENCES APPLIQUÉES, priority 2012, dated 2017).
